From patent US20220098304A1 (JIANGSU HENGRUI MEDICINE, published 2022)

Key:
[1] = biological target: T1, Human PD-1-His protein (Cat. #10377H08H, Sino Biological) (human, UniProt Q15116 25-167); assay: ELISA, PD-1-His coated, HRP anti-human IgG detection
T1 construct: Bought protein; also called hPD-1-His; hu PD-1-his; not shown: His tag of the bought protein

[2] = biological target: T2, Human PD-1-IgG1Fc fusion protein (human); assay: competition ELISA, PD-1-Fc coated, competitor biotin-labeled PD-L1
T2 construct: also called PD-1-Fc; Hu PD-1-Fc
Protocol: (§1) CB buffer pH 9.6 (1.59 g Na₂CO₃ and 2.93 g NaHCO₃ dissolved in 1 L distilled water) was used to dilute PD-1-Fc to 1 μg/ml, which was added to the 96-well plates at a volume of 100 μl/well and allowed to stand at 4° C. for 16 h-20 h. PBS buffer was aspirated from the 96-well plates, and the plates were washed with PBST (pH 7.4 PBS containing 0.05% tween20) buffer once. 120 μl/well PB ST/1% milk was added and incubated at room temperature for 1 h for blocking. The blocking solution was removed and the plates were washed with PBST buffer once. 90 μl anti-PD-1 antibody to be tested diluted to appropriate concentration with the sample diluent (pH 7.4 PBS containing 5% BSA, 0.05% Tween20) was added and pre-incubated at 4° C. for 1 h. […] The reaction system was removed and the plates were washed with PBST 6 times. 100 μl/well Streptavidin-Peroxidase Polymer 1:400 diluted with PBST buffer was added and incubated with shaking at room temperature for 50 min. The plates were washed with PBST 6 times. 100 μl/well TMB was added and incubated at room temperature for 5-10 min. 100 μl/well 1 M H₂SO₄ was added to stop the reaction.

[3] = biological target: T2, Human PD-1-IgG1Fc fusion protein; assay: competition ELISA, PD-1-Fc coated, competitor biotin-labeled PD-L2
Protocol: as §1

[4] = biological target: T1, Human PD-1-His protein (Cat. …); assay: SPR (Biacore), antibody captured on Protein A chip, PD-1 in flow
Text: (§2) IgG was affinity captured by using a Protein A biosensor chip (Cat. #29127556, GE). Human PD-1 antigen (Cat. #10377H08H, Sino Biological) and Cyno PD-1 antigen (purchased from Sino Biological) flowed across the surface of the chip, and the binding and dissociation curves were obtained by real time detection of PD-1 antibody and antigen PD-1 reaction signals by a Biacore T200 instrument. After the dissociation of each experimental cycle was completed, the biosensor chip was washed and regenerated with 10 mM Glycine-HCl pH 1.5 buffer. The experimental buffer system was 1×HBS-EP buffer solution (Cat #BR-1001-88, GE). After the experiment, GE Biacore T200 Evaluation version 3.0 software was used to fit the data with a (1:1) Langmuir model, and the affinity value was obtained.

[5] = biological target: T1, Human PD-1-His protein (Cat. …); assay: SPR (Biacore T200), antibody captured on Protein A chip, antigen in flow, 1:1 Langmuir
Text: as §2

[6] = biological target: T3, Cyno PD-1 antigen (purchased from Sino Biological) (cynomolgus monkey (Cyno; simian), UniProt B0LAJ3 25-170); assay: as above
T3 construct: Bought protein, construct not described; also called simian PD-1; not shown: Tag or carrier of the Sino Biological product (probably a His tag)
Text: as §2

B1: H005-1 (positive control anti-PD-1 antibody, see H005-1 antibody in WO2015085847) (antibody, V domains shown)
VH: EVQLVESGGGLVQPGGSLRLSCAASGFTFSSYMMSWVRQAPGKGLEWVATISGGGANTYYPDSVKGRFTISRDNAKNSLYLQMNSLRAEDTAVYYCARQLYYFDYWGQGTTVTVSS
VL: DIQMTQSPSSLSASVGDRVTITCLASQTIGTWLTWYQQKPGKAPKLLIYTATSLADGVPSRFSGSGSGTDFTLTISSLQPEDFATYYCQQVYSIPWTFGGGTKVEIKR
EC50 [1]: 0.113 µg/mL | OD value MAX [1]: 1.21 OD | IC50 [2]: 0.11 µg/mL | IC50 [3]: 0.225 µg/mL

B2: murine antibody M33 (antibody, V domains shown)
VH: KVMLVESGGGLVKPGGSLKLSCAASGFTFSSYAMSWVRQTPEKRLEWVATISGGGVDTYYQDNVQGRFTISRDNAKNTLYLQMSSLRSEDTALYYCASPYGHGYFDVWGTGTTVTVSS
VL: DIQMTQTTSSLSASLGDRVTISCRASQDINNFLNWYQQKPDGTVKLLIYYTSSLHSGVPSRFSGSGSGTDYSLTISNLEQEDIATYFCQQGNTLPWTFGGGTKLEIK
Kd [4]: 0.737 nM | koff [4]: 0.000227 s⁻¹ | kon [4]: 308000 M⁻¹ s⁻¹

B3: Hu23-11.IgG4AA (antibody, V domains shown)
VH: EVQLVQSGAEVKKPGSSVKVSCKASGGTFSDYEMHWVRQAPGQGLEWMGLIDPETGGTVYNQKFKDRVTITADKSTSTAYMELSSLRSEDTAVYYCARERFSYYGSTSDWYFDVWGQGTTVTVSS
VL: DIVMTQTPLSLPVTPGEPASISCRSSQSLVHSTGNTYLEWYLQKPGQSPQLLIYKVSNRFSGVPDRFSGSGSGTDFTLKISRVEAEDVGVYYCFQGSHVPYTFGGGTKVEIKR
notes: Full-length IgG4-AA, kappa; also called Hu23LCDR1 (N28T)
EC50 [1]: 0.237 µg/mL | OD value MAX [1]: 1.46 OD | Kd [4]: 2.71 nM | koff [4]: 0.000114 s⁻¹ | kon [4]: 42200 M⁻¹ s⁻¹ | IC50 [2]: 0.0924 µg/mL | IC50 [3]: 0.245 µg/mL | Kd [5]: 1.86 nM | koff [5]: 0.000113 s⁻¹ | kon [5]: 60600 M⁻¹ s⁻¹ | Kd [6]: 2.62 nM | koff [6]: 0.000126 s⁻¹ | kon [6]: 47900 M⁻¹ s⁻¹

B4: Hu32a-85.IgG4AA (antibody, V domains shown)
VH: EVQLVQSGAEVKKPGSSVKVSCKASDFTFTDYEIHWVKQAPGHGLEWIGLFDPETGGIVYNQKFKGKATLTADKSTSTAYMEFSSLRSEDTAVYYCTREGYNRDWYFDVWGQGTTVTVSS
VL: DIVMTQTPLSLPVTPGEPASISCRSSQSLVHSTGNTYLEWYLQKPGQSPQLLIYKVSNRFSGVPDRFSGSGSGTDFTLKISRVEAEDVGVYYCFQGSHVPYTFGGGTKVEIKR
notes: Full-length IgG4-AA, kappa
EC50 [1]: 0.136 µg/mL | OD value MAX [1]: 1.26 OD | Kd [4]: 3.18 nM | koff [4]: 0.000315 s⁻¹ | kon [4]: 99000 M⁻¹ s⁻¹ | IC50 [2]: 0.0786 µg/mL | IC50 [3]: 0.206 µg/mL | Kd [5]: 3.25 nM | koff [5]: 0.000278 s⁻¹ | kon [5]: 85600 M⁻¹ s⁻¹ | Kd [6]: 4.11 nM | koff [6]: 0.000475 s⁻¹ | kon [6]: 116000 M⁻¹ s⁻¹

B5: Hu33-1.IgG4AA (antibody, V domains shown)
VH: EVQLVESGGGLVQPGGSLRLSCAASGFTFSSYAMSWVRQAPGKGLEWVATISGGGVDTYYQDNVQGRFTISRDNAKNSLYLQMNSLRAEDTAVYYCARPYGHGYFDVWGQGTTVTVSS
VL: DIQMTQSPSSLSASVGDRVTITCRASQDINNFLNWYQQKPGKAPKLLIYYTSSLHSGVPSRFSGSGSGTDFTLTISSLQPEDFATYYCQQGNTLPWTFGGGTKVEIKR
notes: Full-length IgG4-AA, kappa
Kd [4]: 19.3 nM | koff [4]: 0.00128 s⁻¹ | kon [4]: 66100 M⁻¹ s⁻¹

B6: Hu33-9.IgG4AA (antibody)
heavy: not shown
light: DIQMTQSPSSLSASVGDRVTITCRASQDINNFLNWYQQKPGGAVKLLIYYTSSLHSGVPSRFSGSGSGTDYTLTISSLQPEDFATYYCQQGNTLPWTFGGGTKVEIKRTVAAPSVFIFPPSDEQLKSGTASVVCLLNNFYPREAKVQWKVDNALQSGNSQESVTEQDSKDSTYSLSSTLTLSKADYEKHKVYACEVTHQGLSSPVTKSFNRGEC
notes: Full-length IgG4-AA, kappa
Kd [4]: 1.09 nM | koff [4]: 0.000153 s⁻¹ | kon [4]: 140000 M⁻¹ s⁻¹

B7: Hu33-8.IgG4AA (antibody)
heavy: not shown
light: DIQMTQSPSSLSASVGDRVTITCRASQDINNFLNWYQQKPGGAVKLLIYYTSSLHSGVPSRFSGSGSGTDYTLTISSLQPEDFATYYCQQGNTLPWTFGGGTKVEIKRTVAAPSVFIFPPSDEQLKSGTASVVCLLNNFYPREAKVQWKVDNALQSGNSQESVTEQDSKDSTYSLSSTLTLSKADYEKHKVYACEVTHQGLSSPVTKSFNRGEC
notes: Full-length IgG4-AA, kappa
Kd [4]: 1.06 nM | koff [4]: 0.000162 s⁻¹ | kon [4]: 153000 M⁻¹ s⁻¹

B8: Hu33-7.IgG4AA (antibody, V domains shown)
VH: EVQLVESGGGLVQPGGSLRLSCAASGFTFSSYAMSWVRQAPGKGLEWVATISGGGVDTYYQDNVQGRFTISRDNAKNSLYLQMNSLRAEDTAVYYCARPYGHGYFDVWGQGTTVTVSS
VL: DIQMTQSPSSLSASVGDRVTITCRASQDINNFLNWYQQKPGGAVKLLIYYTSSLHSGVPSRFSGSGSGTDYTLTISSLQPEDFATYYCQQGNTLPWTFGGGTKVEIKR
notes: Full-length IgG4-AA, kappa
Kd [4]: 33.8 nM | koff [4]: 0.0026 s⁻¹ | kon [4]: 76900 M⁻¹ s⁻¹

B9: Hu33-4.IgG4AA (antibody, V domains shown)
VH: EVQLVESGGGLVQPGGSLRLSCAASGFTFSSYAMSWVRQAPGKGLEWVATISGGGVDTYYQDNVQGRFTISRDNAKNSLYLQMNSLRAEDTAVYYCARPYGHGYFDVWGQGTTVTVSS
VL: DIQMTQSPSSLSASVGDRVTITCRASQDINNFLNWYQQKPGKAPKLLIYYTSSLHSGVPSRFSGSGSGTDYTLTISSLQPEDFATYYCQQGNTLPWTFGGGTKVEIKR
notes: Full-length IgG4-AA, kappa
Kd [4]: 31.4 nM | koff [4]: 0.00255 s⁻¹ | kon [4]: 81100 M⁻¹ s⁻¹

B10: murine antibody M32 (antibody, V domains shown)
VH: QVQLQQSGAELVRPGASVTLSCKASDFTFTDYEIHWVKQTPVHGLEWIGLFDPETGGIVYNQKFKGKAILTADKSSNTAYMEFRSLTSEDSAVYYCTREGYNRDWYFDVWGTGTTVTVSS
VL: DVLMTQTPLSLPVSLGDQASISCRSSQSIVHSNGNTYLEWYLQKPGQSPKLLIYKVSNRFSGVPDRFSGSGSGTDFTLKISRVEAEDLGIYYCFQGSHVPYAFGGGTKLEIK
Kd [4]: 5.3 nM | koff [4]: 0.000415 s⁻¹ | kon [4]: 78300 M⁻¹ s⁻¹
